Results published in publication PMC7984218.

T1: Dna2405N (UniProt P38859)
T1 sequence: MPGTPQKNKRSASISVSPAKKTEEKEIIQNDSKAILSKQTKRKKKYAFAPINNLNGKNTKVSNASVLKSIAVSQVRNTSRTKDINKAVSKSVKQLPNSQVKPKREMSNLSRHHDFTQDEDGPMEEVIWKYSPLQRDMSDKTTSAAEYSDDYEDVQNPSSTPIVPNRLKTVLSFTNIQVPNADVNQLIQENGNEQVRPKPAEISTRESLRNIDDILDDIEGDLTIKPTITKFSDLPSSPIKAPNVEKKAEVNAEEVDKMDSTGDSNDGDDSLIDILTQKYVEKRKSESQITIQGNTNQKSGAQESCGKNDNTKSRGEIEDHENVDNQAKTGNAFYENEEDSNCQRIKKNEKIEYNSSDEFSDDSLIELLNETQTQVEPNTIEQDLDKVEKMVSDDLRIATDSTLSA

T2: GST-Dna2405N-5A-His6 (UniProt P38859 1-405, K41A;R42A;K43A;K44A;K45A)
T2 sequence: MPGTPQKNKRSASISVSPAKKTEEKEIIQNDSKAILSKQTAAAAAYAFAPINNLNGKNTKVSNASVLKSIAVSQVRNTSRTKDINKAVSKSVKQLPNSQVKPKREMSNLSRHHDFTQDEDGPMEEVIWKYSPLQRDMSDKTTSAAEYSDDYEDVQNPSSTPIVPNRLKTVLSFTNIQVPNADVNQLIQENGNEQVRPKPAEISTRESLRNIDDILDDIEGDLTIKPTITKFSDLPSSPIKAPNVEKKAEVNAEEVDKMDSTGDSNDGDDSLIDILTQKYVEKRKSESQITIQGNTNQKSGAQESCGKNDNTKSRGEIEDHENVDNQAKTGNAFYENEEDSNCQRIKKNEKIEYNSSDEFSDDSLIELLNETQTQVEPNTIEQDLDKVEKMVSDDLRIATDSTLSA

B1: Hairpin (standard 5' hairpin flap; oligos 1, 2, 5) (structured_DNA)
DNA 1: GAAAACATTATTAATGGCGTCGAGCTAGGCACAAGGCGAACTGCTAACGG
DNA 2: CCGTTAGCAGTTCGCCTTGTGCCTA
DNA 3: GCGCATGTGCGTTCCGTCCGGTTCAAGCCGCAGCGGCTTGAACCGGACGCTCGACGCCATTAATAATGTTTTC

Key:
Dna2405N = molecular target: T1, Dna2405N; test: competition
GST-Dna2405N-5A-His6 = molecular target: T2, GST-Dna2405N-5A-His6; test: EMSA

Molecule	binding signal (% inhibition of Hairpin binding) (Dna2405N)	binding result (GST-Dna2405N-5A-His6)
M13mp18 viral DNA (sscDNA)	> 80	
B1		no binding
